# Assay results taken from publication PMC5111854.
# Key:
# [1] = target: Cas5c (Desulfovibrio vulgaris str. Hildenborough); test: ITC
# [2] = target: Cas7 (Desulfovibrio vulgaris str. Hildenborough); test: ITC
Substance,Kd [1],dH [1],stoichiometry N [1],Kd [2],dH [2]
Cas8c (natural protein),3.9 µM,4.8 kcal/mol,0.57,6 µM,5.2 kcal/mol
Cas7 (natural protein),3.8 µM,5.1 kcal/mol,0.59,,
